These are literature values, as cited in paper PMC6302113.

The target of the data set is IL-22 (Homo sapiens) (UniProt Q9GZX6).
Sequence of UniProt Q9GZX6 (Q9GZX6 34-179): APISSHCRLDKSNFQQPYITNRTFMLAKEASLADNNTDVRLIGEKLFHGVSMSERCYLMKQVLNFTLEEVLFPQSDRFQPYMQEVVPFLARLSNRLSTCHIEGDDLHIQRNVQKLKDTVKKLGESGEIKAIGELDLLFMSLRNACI

Turning to IL-22BPi2 (from UniProt Q969J5), the Kd (as a rule, the equilibrium constant for the complex coming apart) is 1 pM.
